US12077566B2, “Mutants of recombinant immunoregulatory protein of Ganoderma lucidum and applications thereof” (priority 2017, dated 2024)
Where a chain is given by its changes, count along the chain named. Numbers in names are those of the source.

B1: rLZ-8 (R9A): alanine mutant of rLZ-8 at R9 (protein)
chain: MSDTALIFALAWDVKKLSFDYTPNWGRGNPNNFIDTVTFPKVLTDKAYTYRVAVSGRNLGVKPSYAVESDGSQKVNFLEYNSGYGIADTNTIQVFVVDPDTNNDFIIAQWN
B2: rLZ-8 (K41D/K46E/K74E): rLZ-8 mutant K41D, K46E and K74E (protein)
chain: B1 chain with A9R, K41D, K46E, K74E
B3: rLZ-8 (K46E/K74E): rLZ-8 mutant K46E and K74E (protein)
chain: B1 chain with A9R, K46E, K74E
B4: rLZ-8 (L17K): rLZ-8 mutant after surface potential optimization, L17K (protein)
chain: B1 chain with A9R, L17K
B5: rLZ-8 (D20H): rLZ-8 mutant after surface potential optimization, D20H (protein)
chain: B1 chain with A9R, D20H
B6: FIP-fve: fungai immunomodulatory protein from flammulina velutipes (protein)
chain: SATSLTFQLAYLVKKIDFDYTPNWGRGTPSSYIDNLTFPKVLTDKKYSYRVVVNGSDLGVESNFAVTPSGGQTINFLQYNKGYGVADTKTIQVFVVIPDTGNSEEYIIAEWKKT
B7: rLZ-8 (D20H/D70K): rLZ-8 mutant after surface potential optimization, D20H and D70K (protein)
chain: B1 chain with A9R, D20H, D70K
B8: rLZ-8 (K46E): rLZ-8 mutant K46E (protein)
chain: B1 chain with A9R, K46E
B9: rLZ-8 (M1A/R9A/D100A): rLZ-8 mutant named only in Tables 2, 3, 7 and 8 (protein)
chain: B1 chain with M1A, D100A

Target: EGFR extracellular domain (Homo sapiens, UniProt P00533)
Assay: Affinity test by surface plasmon resonance (Biacore T200, CM5 chip)
Type: binding
Conditions: EGFR extracellular domain coupled on CM5 chip, analyte 4-256 nM
Protocol: The Biacore™ T200 equipment (a Surface Plasmon Resonance from GE Company) is selected. Through the surface plasma resonance technology, the affinity of the rLZ-8 and the mutants thereof to the EGFR extracellular domain is tested. The CM5 chip is adopted to serve as the affinity test chip.
The EGFR extracellular domain (with an amino acid sequence of 25-645) serves as the ligand for coupling; 1 mg EGFR freeze-dried powders are diluted with HEPES buffer solution to a concentration of 400 μg/mL and set aside. Three 1.5 mL EP tubes are prepared; 10 μL ligand are respectively added into the three tubes, then 90 μL 10 mM sodium acetate with different pH values of 4.5, 5.0 and 5.5 are respectively added into the tubes and are mixed completely and uniformly; and a final concentration of the ligand is 40 μg/mL. Moreover, 200 μL 50 mM sodium acetate is added into another 1.5 mL EP tube.
The ligand has a molecular weight of 70 kDa, the analyte (rLZ-8) has a molecular weight of 12.4 kDa. In theory, one rLZ-8 […] can bind with one EGFR, and thus the stoichiometric ratio Sm is equal to 1. Through the following equations, the coupling amount RL of the ligand is calculated.
Through the experimental experience, the optimal reagent coupling amount is set to be 3*RL, and the coupling amount is set to be 1700 RU. The EGFR extracellular domain is successively coupled on the CM5 chip.
In the affinity test, in order to eliminate the influence of different concentrations on the affinity, every of the rLZ-8 and the mutants thereof are tested with eight concentrations, wherein: seven concentrations are gradient concentrations, and the last one is the test reference concentration.

Molecule	Dissociation rate constant (koff)	Ka
B1	0.000528 s⁻¹	61200 M⁻¹ s⁻¹
B2	–	35300 M⁻¹ s⁻¹
B3	0.000614 s⁻¹	65700 M⁻¹ s⁻¹
B4	7.56e-05 s⁻¹	10100 M⁻¹ s⁻¹
B5	0.000432 s⁻¹	58700 M⁻¹ s⁻¹

Same assay, conditions: compared with rLZ-8

Molecule	Affinity with the EGFR (in words)
B6	does not have the capacity of binding with the EGFR
B1	no obvious change
B2	decreased

Test system: human liver cancer Hep G2 cells
Assay: not given
Conditions: mouse, in vivo
Source text: Two weeks later, the model mice are divided into groups randomly, and each group has 10 mice. The administration method is caudal vein injection, once a day, for consecutive 28 days (qd×28, i.v.). […] During the experiment, if the mouse dies, the dead mouse is weighted on the same day, and the tumor tissue is taken out to be weighted. For the living mouse after administration for 28 days, the mouse is killed, and then the tumor tissue is taken out to be weighted. The death time and death number of the mice in each group are recorded in detail; the survival conditions of the mice of the experimental groups and the control groups are analyzed, and the survival rate is calculated, wherein the survival rate is obtained through subtracting the death number of the mice from the total number of the mice, and then dividing the difference by the total number of the mice.

Molecule	Mice weight after experiment
B1	19.3 ± 1.3 g
B2	20.0 ± 1.2 g
B7	20.1 ± 1.5 g
B3	20.1 ± 1.7 g
B8	19.4 ± 1.8 g
B4	20.1 ± 1.4 g
B5	19.7 ± 1.7 g

Same assay, conditions: qd×28 i.v.; rLZ-8 and mutants 0.5 mg/kg, sorafenib 50 mg/kg

Molecule	Mice tumor weight after experiment
B1	0.65 ± 0.43 g
B2	1.25 ± 0.53 g
B9	0.78 ± 0.67 g
B7	0.51 ± 0.27 g
B3	0.69 ± 0.42 g
B8	0.75 ± 0.44 g
B4	0.58 ± 0.33 g
B5	0.60 ± 0.31 g

Same assay, conditions: qd×28 i.v.; rLZ-8 and mutants 0.5 mg/kg, sorafenib 50 mg/kg; 10 mice per group

Molecule	Survival rate of mice after experiment
B1	50%
B2	40%
B9	60%
B7	70%
B3	60%
B8	60%
B4	70%
B5	60%

Test system: human breast cancer MCF7 cells
Assay: Orthotopic transplantation tumor model of human breast cancer MCF7 cells
Type: in vivo, BALB/c nude mice
Conditions: after administration for 28 days
Protocol: One day before the experiment, 0.5 mg of 17ß estradiol sustained release tablet is embedded below the neck skin of the BALB/c nude mice.

Molecule	Mice tumor weight after experiment
B1	0.79 ± 0.31 g
B2	1.10 ± 0.42 g
B9	0.77 ± 0.32 g
B7	0.60 ± 0.27 g
B3	0.73 ± 0.24 g
B8	0.75 ± 0.32 g
B4	0.63 ± 0.31 g
B5	0.61 ± 0.22 g

Test system: human colon cancer SW480 cells
Assay: Transplantation tumor model of human colon cancer SW480 cells
Type: in vivo, BALB/c nude mice
Conditions: after administration for 28 days
Protocol: The RPMI1640 medium containing 10% fetal bovine serum is selected for the human colon cancer SW480 cells, and then is placed in the CO2 constant-temperature incubator at 37° C. for culturing. The SW480 cells at the logarithmic phase are digested by pancreatin and thereafter washed with serum-free RPMI1640 medium; 2×10^6 cells are inoculated below the back skin of the BALB/c nude mice; after the tumor blocks for observation are formed and have the diameter larger than 0.5 cm, the mice are divided into groups randomly; and the transplantation tumor model of human colon cancer SW480 cells are constructed in the BALB/c nude mice.

Molecule	Mice tumor weight after experiment
B1	1.89 ± 0.37 g
B2	3.10 ± 0.48 g
B9	1.97 ± 0.35 g
B7	1.60 ± 0.29 g
B3	2.23 ± 0.54 g
B8	2.15 ± 0.62 g
B4	1.62 ± 0.41 g
B5	1.54 ± 0.45 g

Test system: human lung cancer A549 cells
Assay: Orthotopic transplantation tumor model of human lung cancer A549 cells;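 note: test animals were NOG mice aged 6-8 weeks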
Conditions: after administration for 28 days
Protocol: The human lung cancer A549 cell strain is selected. The NOG Mice of 6-8 weeks old are selected.
The DMEM containing 10% fetal bovine serum is selected for the human lung cancer A549 cells, and then is placed in the CO2 constant-temperature incubator at 37° C. for culturing. The A549 cells at the logarithmic phase are digested by pancreatin and thereafter washed with serum-free DMEM; the living cell concentration is adjusted to 1×10^8 cells per milliliter; 20 μL cell suspension is taken and inoculated at the lung of the NOG mice; two weeks later, the orthotopic transplantation tumor model of A549 lung cancer cells is constructed in the NOG mice.

Molecule	Mice survival rate after experiment	Mice tumor weight after experiment	Mice weight after experiment
B1	50%	0.69 ± 0.53 g	20.0 ± 1.4 g
B2	40%	1.20 ± 0.62 g	19.1 ± 1.3 g
B7	70%	0.49 ± 0.28 g	20.6 ± 1.7 g
B3	50%	0.63 ± 0.41 g	20.0 ± 1.5 g
B8	40%	0.65 ± 0.31 g	20.4 ± 1.6 g
B4	70%	0.53 ± 0.30 g	–
B5	70%	0.51 ± 0.32 g	19.9 ± 1.7 g
